These results are taken from publication PMC5306213, “Common Distribution of gad Operon in Lactobacillus brevis and its GadA Contributes to Efficient GABA Synthesis toward Cytosolic Near-Neutral pH” (Frontiers in Microbiology, 2017).

Broadly, the Km is the concentration of substrate that gives half-maximal velocity. One may read the Vmax as the top rate of the reaction or transport when substrate is in excess. Broadly, the kcat is the number of substrate molecules converted per active site and unit of time at saturation. As usually defined, the kcat/Km is the second-order rate constant that governs catalysis at low substrate concentration.

Substrate in series [1]: N[C@@H](CCC(=O)O)C(=O)O
Briefly: glutamate decarboxylation assay, Michaelis-Menten fit. The note with it: pH 4.8, 60 °C, McIlvaine (citrate-phosphate) buffer, PLP, glutamate 0.9-36 mM. Format: biochemical, Lactiplantibacillus plantarum. The source says:
glutamate decarboxylation assay, Michaelis-Menten fit on Lb. plantarum GadB

Substrate in series [2]: N[C@@H](CCC(=O)O)C(=O)O
Described as above. It counts as biochemical, Levilactobacillus brevis. The note with it: pH 4.8, 45 °C, sulfate buffer (0.8 M sodium sulfate, 50 mM sodium acetate), PLP, glutamate 0.9-36 mM. An excerpt: glutamate decarboxylation assay, Michaelis-Menten fit on Lb. brevis GadA (WT)

B1: Lb. plantarum GadB (Lactiplantibacillus plantarum WCFS1) (protein)
chain: MAMLYGKHNHEAEEYLEPVFGAPSEQHDLPKYRLPKHSLSPREADRLVRDELLDEGNSRLNLATFCQTYMEPEAVELMKDTLAKNAIDKSEYPRTAEIENRCVNIIANLWHAPDDEHFTGTSTIGSSEACMLGGLAMKFAWRKRAQAAGLDLNAHRPNLVISAGYQVCWEKFCVYWDVDMHVVPMDEQHMALDVNHVLDYVDEYTIGIVGIMGITYTGQYDDLAALDKVVTHYNHQHPKLPVYIHVDAASGGFYTPFIEPQLIWDFRLANVVSINASGHKYGLVYPGVGWVVWRDRQFLPPELVFKVSYLGGELPTMAINFSHSAAQLIGQYYNFIRFGMDGYREIQTKTHDVARYLAAALDKVGEFKMINNGHQLPLICYQLASREDREWTLYDLSDRLLMNGWQVPTYPLPANLEQQVIQRIVVRADFGMNMAHDFMDDLTKAVHDLNHAHIVYHHDAAPKKYGFTH
notes: recombinant in E. coli from pET-28a(+), +GSHM at N-terminus (left after tag cleavage, details in supplement); start MAMLYGKH (from primer); about 54 kDa from kcat/Vmax; dimer per cited work
In the case of B1, in series [1], the Km is 20.02 ± 2.557 mM, the Vmax was 73.3 µmol/min/mg, the kcat was 65.9 ± 4.2 s⁻¹ and the kcat/Km came out at 3290 M⁻¹ s⁻¹.

B2: Lb. brevis GadA (WT) (Levilactobacillus brevis ATCC 367) (protein)
chain: MNKNDQETQQMINNVDLEKTFLGSVEAGQSLPTNTLPDDPMAPDVAAQLVEHYRLNEAKANQNLATFCTTQMEPQADELMKNALNTNAIDKSEYPKTAAMENYCVSMIAHLWGIPDNEKIYDDFIGTSTVGSSEGCMLGGLALLHSWKHRAKAAGFDIEDLHSHKPNLVIMSGYQVVWEKFCTYWNVEMRQVPINGDQVSLDMDHVMDYVDENTIGIIGIEGITYTGSVDDIQTLDNLVTEYNKTATMPVRIHVDAAFGGLFAPFVDGFNPWDFRLKNVVSINVSGHKYGMVYPGLGWIVWRHNTADILPAEMRFQVPYLGKTVDSIAINFSHSGAHISAQYYNFIRFGLSGYKTIMQNVRKVSLKLTAALKTYGIFDILVDGSQLPINCWKLADDAPVGWTLYDLESELAKYGWQVPAYPLPKNRDDVTISRIVVRPSMTMTIADDFLDDLKLAIDGLNHTFGVTTTVDQDNKTTVRS
notes: recombinant in E. coli from pRSETA-SUMO with N-terminal His-SUMO tag (tag removal told only in supplement); native N-terminus MNKNDQET (from primer); tetramer per cited work
Turning to B2, in series [2], the Km was determined as 26.95 ± 2.437 mM, the Vmax turned out to be 9.16 µmol/min/mg, the kcat stood at 8.17 ± 0.405 s⁻¹ and the kcat/Km turned out to be 303 M⁻¹ s⁻¹.
